Experimental data from PMC6097932 (Molecular cell, 2018).

Molecular target: the molecule itself
Experiment: SEC

B1: FANCA-WT (natural protein, human, UniProt O15360 1-1455, looked up)
chain: MSDSWVPNSASGQDPGGRRRAWAELLAGRVKREKYNPERAQKLKESAVRLLRSHQDLNALLLEVEGPLCKKLSLSKVIDCDSSEAYANHSSSFIGSALQDQASRLGVPVGILSAGMVASSVGQICTAPAETSHPVLLTVEQRKKLSSLLEFAQYLLAHSMFSRLSFCQELWKIQSSLLLEAVWHLHVQGIVSLQELLESHPDMHAVGSWLFRNLCCLCEQMEASCQHADVARAMLSDFVQMFVLRGFQKNSDLRRTVEPEKMPQVTVDVLQRMLIFALDALAAGVQEESSTHKIVRCWFGVFSGHTLGSVISTDPLKRFFSHTLTQILTHSPVLKASDAVQMQREWSFARTHPLLTSLYRRLFVMLSAEELVGHLQEVLETQEVHWQRVLSFVSALVVCFPEAQQLLEDWVARLMAQAFESCQLDSMVTAFLVVRQAALEGPSAFLSYADWFKASFGSTRGYHGCSKKALVFLFTFLSELVPFESPRYLQVHILHPPLVPGKYRSLLTDYISLAKTRLADLKVSIENMGLYEDLSSAGDITEPHSQALQDVEKAIMVFEHTGNIPVTVMEASIFRRPYYVSHFLPALLTPRVLPKVPDSRVAFIESLKRADKIPPSLYSTYCQACSAAEEKPEDAALGVRAEPNSAEEPLGQLTAALGELRASMTDPSQRDVISAQVAVISERLRAVLGHNEDDSSVEISKIQLSINTPRLEPREHMAVDLLLTSFCQNLMAASSVAPPERQGPWAALFVRTMCGRVLPAVLTRLCQLLRHQGPSLSAPHVLGLAALAVHLGESRSALPEVDVGPPAPGAGLPVPALFDSLLTCRTRDSLFFCLKFCTAAISYSLCKFSSQSRDTLCSCLSPGLIKKFQFLMFRLFSEARQPLSEEDVASLSWRPLHLPSADWQRAALSLWTHRTFREVLKEEDVHLTYQDWLHLELEIQPEADALSDTERQDFHQWAIHEHFLPESSASGGCDGDLQAACTILVNALMDFHQSSRSYDHSENSDLVFGGRTGNEDIISRLQEMVADLELQQDLIVPLGHTPSQEHFLFEIFRRRLQALTSGWSVAASLQRQRELLMYKRILLRLPSSVLCGSSFQAEQPITARCEQFFHLVNSEMRNFCSHGGALTQDITAHFFRGLLNACLRSRDPSLMVDFILAKCQTKCPLILTSALVWWPSLEPVLLCRWRRHCQSPLPRELQKLQEGRQFASDFLSPEAASPAPNPDWLSAAALHFAIQQVREENIRKQLKKLDCEREELLVFLFFFSLMGLLSSHLTSNSTTDLPKAFHVCAAILECLEKRKISWLALFQLTESDLRLGRLLLRVAPDQHTRLLPFAFYSLLSYFHEDAAIREEAFLHVAVDMYLKLVQLFVAGDTSTVSPPAGRSLELKGQGNPVELITKARLFLLQLIPRCPKKSFSHVAELLADRGDCDPEVSAALQSRQQAAPDADLSQEPHLF
stoichiometry N: 2
